Experimental data: patent US20100077498A1 (published 2010)
Values joined by “and” are separate entries in the source; they are usually repeats but may differ in a detail not shown here. Equal values may be shown once.

Tests used:
[1] = target: T1, mouse transferrin receptor (mouse, UniProt Q62351 1-763); experiment: radio-receptor assay on mouse fibroblasts, 4 C, displacement of [125I]-8D3 by unlabeled cTfRMAb, non-linear regression
T1 construct: whole, on cells; Mouse fibroblasts were the source of the mouse TfR in the radio-receptor assay; also called mouse TfR; TfR
Procedure: (§1) Mouse TfR radio-receptor assay. Mouse fibroblasts were plated in 24-well cluster dishes (100,000 cells/well) 24 hours before the radio-receptor assay (RRA) of TfRMAb binding to the mouse TfR. The medium was aspirated, the cells washed with phosphate buffered saline (PBS), and 500 μL was added to each well containing 0.15 μCi/mL of [¹²⁵I]-labeled rat 8D3 MAb, and 0.3 to 100 nM concentrations of either unlabeled rat 8D3 MAb or unlabeled cTfRMAb. Following incubation at 4 C for 120 min, the medium was aspirated, the plates washed with cold PBS containing 1% bovine serum albumin (BSA), and the monolayer was lysed with 0.2 mL/well of 1 N NaOH. An aliquot was removed for protein measurement using the bicinchoninic acid (BCA) assay, and the radioactivity in the lysate was determined with a Beckmann gamma counter. The % bound/mg protein was computed from the radioactivity in the cell lysate and the total radioactivity in the medium. The 8D3 self-inhibition binding data were fit by non-linear regression analysis yield either the KD of 8D3 self-inhibition in the binding assay, or the KI of cross-inhibition by the chimeric TfRMAb or the cTfRMAb fusion protein.

[2] = target: T1, mouse transferrin receptor; experiment: radio-receptor assay on mouse fibroblasts, self-inhibition of [125I]-8D3, non-linear regression
Procedure: as §1
(§2) Mouse fibroblasts were used as the source of the mouse TfR, and the ¹²⁵I-labeled rat 8D3 TfRMAb was used as the binding ligand. […]

[3] = target: T1, mouse transferrin receptor; experiment: radio-receptor assay on mouse fibroblasts, 4 C, self-inhibition of [125I]-8D3 by unlabeled 8D3, non-linear regression
Procedure: as §1

[4] = target: T2, fusion protein of human Fc and the human GFRalpha1 extracellular domain (human, UniProt P56159 25-429, limits assumed); experiment: ELISA: GFRα1:Fc captured by mouse anti-human Fc, detection with goat anti-GDNF and rabbit anti-goat-AP; given as ED50
T2 construct: extracellular domain; Captured on ELISA wells by a mouse anti-human Fc antibody; The order of the parts follows the printed name GFRα1:Fc; also called GFRα1:Fc fusion protein; GFRα1 ECD; not shown: human Fc
T2 sequence (looked up): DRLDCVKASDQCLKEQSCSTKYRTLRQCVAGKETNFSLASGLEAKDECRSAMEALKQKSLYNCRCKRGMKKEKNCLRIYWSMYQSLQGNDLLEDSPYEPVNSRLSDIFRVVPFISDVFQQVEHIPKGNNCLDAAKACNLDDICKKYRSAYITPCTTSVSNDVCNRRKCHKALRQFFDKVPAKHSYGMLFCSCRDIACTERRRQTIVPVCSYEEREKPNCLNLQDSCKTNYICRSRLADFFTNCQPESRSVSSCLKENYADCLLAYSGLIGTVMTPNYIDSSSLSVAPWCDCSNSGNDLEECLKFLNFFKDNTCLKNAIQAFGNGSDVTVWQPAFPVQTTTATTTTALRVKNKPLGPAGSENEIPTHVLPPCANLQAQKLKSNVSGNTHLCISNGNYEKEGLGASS
Source text: FIG. 10. (A) Outline of GFRα1 receptor binding assay. The GFRα1:Fc fusion protein is captured by a mouse anti-human (MAH) Fc antibody. The GDNF, or cTfRMAb-GDNF fusion protein, binds to the GFRα1, and this binding is detected with a goat anti-GDNF antibody and a rabbit anti-goat (RAG) antibody conjugated to alkaline phosphatase (AP). (B) Binding of either GDNF (top panel) or the cTfRMAb-GDNF fusion protein (bottom panel) to the GFRα1 extracellular domain (ECD) is saturable.
The cTfRMAb-GDNF fusion protein is a bi-functional molecule that binds 2 receptors (FIG. 8): (i) the brain capillary endothelial mouse TfR to cause RMT across the mouse BBB in vivo, and (ii) the GFRα1 on neurons, to cause therapeutic actions in brain behind the BBB. The bi-functionality of the cTfRMAb-GDNF fusion protein was tested with binding assays for both the human GFRα1 and the mouse TfR. A mouse anti-human Fc (MAH-Fc) is plated in ELISA wells and captures a fusion protein of human Fc and the human GFRα1 extracellular domain (ECD). The cTfRMAb-GDNF fusion protein, or mature human GDNF, is then added, and these molecules bind to the GFRα1 ECD in proportion to the affinity for this receptor. The binding of the GDNF or the cTfRMAb-GDNF fusion protein is then detected with a goat anti-GDNF antibody, and a rabbit anti-goat (RAG) IgG-alkaline phosphatase (AP) conjugate (FIG. 10A).

[5] = target: T1, mouse transferrin receptor; experiment: radio-receptor assay on mouse fibroblasts, displacement of [125I]-8D3 by unlabeled cTfRMAb-GDNF, non-linear regression
Procedure: as §1, §2

T1 sequence (Q62351 whole entry): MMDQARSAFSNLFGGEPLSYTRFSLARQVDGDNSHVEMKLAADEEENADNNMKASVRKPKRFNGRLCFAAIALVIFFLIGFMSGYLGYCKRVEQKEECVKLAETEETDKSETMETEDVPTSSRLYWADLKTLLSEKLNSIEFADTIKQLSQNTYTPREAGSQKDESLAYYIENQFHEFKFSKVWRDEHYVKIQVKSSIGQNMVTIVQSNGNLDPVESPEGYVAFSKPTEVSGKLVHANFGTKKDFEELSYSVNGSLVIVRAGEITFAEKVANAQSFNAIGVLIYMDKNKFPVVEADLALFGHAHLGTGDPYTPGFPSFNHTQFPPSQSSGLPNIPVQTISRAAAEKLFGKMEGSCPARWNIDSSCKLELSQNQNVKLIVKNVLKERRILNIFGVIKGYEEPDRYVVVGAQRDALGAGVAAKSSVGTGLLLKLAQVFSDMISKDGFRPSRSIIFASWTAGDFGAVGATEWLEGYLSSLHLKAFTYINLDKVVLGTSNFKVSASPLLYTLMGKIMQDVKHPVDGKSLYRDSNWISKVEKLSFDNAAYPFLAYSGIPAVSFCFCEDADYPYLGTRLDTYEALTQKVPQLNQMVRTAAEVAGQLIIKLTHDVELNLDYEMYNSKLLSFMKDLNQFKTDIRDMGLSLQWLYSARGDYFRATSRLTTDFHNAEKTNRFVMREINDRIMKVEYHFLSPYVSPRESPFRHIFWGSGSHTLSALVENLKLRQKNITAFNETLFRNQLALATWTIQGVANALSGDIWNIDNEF

B1: chimeric monoclonal antibody against the mouse transferrin receptor (rat 8D3 variable regions, mouse IgG1/kappa constant regions) (antibody, V domains shown)
VH: EVQLVESGGGLVQPGNSLTLSCVASGFTFSNYGMHWIRQAPKKGLEWIAMIYYDSSKMNYADTVKGRFTISRDNSKNTLYLEMNSLRSEDTAMYYCAVPTSHYVVDVWGQGVSVTVSS
VL: DIQMTQSPASLSASLEEIVTITCQASQDIGNWLAWYQQKPGKSPQLLIYGATSLADGVPSRFSGSRSGTQFSLKISRVQVEDIGIYYCLQAYNTPWTFGGGTKLELKR
notes: also called chimeric TfRMAb; cTfRMAb
- Ki [1]: 2.6 nM

B2: rat 8D3 monoclonal antibody against the mouse transferrin receptor, hybridoma generated (antibody, V domains shown)
VH: EVQLVESGGGLVQPGNSLTLSCVASGFTFSNYGMHWIRQAPKKGLEWIAMIYYDSSKMNYADTVKGRFTISRDNSKNTLYLEMNSLRSEDTAMYYCAVPTSHYVVDVWGQGVSVTVSS
VL: DIQMTQSPASLSASLEEIVTITCQASQDIGNWLAWYQQKPGKSPQLLIYGATSLADGVPSRFSGSRSGTQFSLKISRVQVEDIGIYYCLQAYNTPWTFGGGTKLELK
modifications: In part of the assays the antibody carried 125I (radio-iodinated tyrosines); the letters do not show this.
notes: Rat hybridoma antibody purified on protein G; also called 8D3 MAb; 8D3 TfRMAb
- Kd [2]: 5 nM and 3.2 nM
- Kd [3]: 2.3 nM

B3: human mature 134 amino acid glial derived neurotrophic factor (ligand, UniProt P39905 78-211, looked up)
chain: SPDKQMAVLPRRERNRQAAAANPENSRGKGRRGQRGKNRGCVLTAIHLNVTDLGLGYETKEELIFRYCSGSCDAAETTYDKILKNLSRNRRLVSDKVGQACCRPIAFDDDLSFLDDNLVYHILRKHSAKRCGCI
notes: mature; also called GDNF; mature human GDNF
- EC50 [4]: 1.03 nM

B4: cTfRMAb-GDNF fusion protein (human mature GDNF fused to the carboxyl terminus of the heavy chain of the chimeric MAb against the mouse TfR) (other)
heavy: EVQLVESGGGLVQPGNSLTLSCVASGFTFSNYGMHWIRQAPKKGLEWIAMIYYDSSKMNYADTVKGRFTISRDNSKNTLYLEMNSLRSEDTAMYYCAVPTSHYVVDVWGQGVSVTVSSAKTTPPSVYPLAPGSAAQTNSMVTLGCLVKGYFPEPVTVTWNSGSLSSGVHTFPAVLQSDLYTLSSSVTVPSSTWPSETVTCNVAHPASSTKVDKKIVPRDCGCKPCICTVPEVSSVFIFPPKPKDVLTITLTPKVTCVVVDISKDDPEVQFSWFVDDVEVHTAQTQPREEQFNSTFRSVSELPIMHQDWLNGKEFKCRVNSAAFPAPIEKTISKTKGRPKAPQVYTIPPPKEQMAKDKVSLTCMITDFFPEDITVEWQWNGQPAENYKNTQPIMDTDGSYFVYSKLNVQKSNWEAGNTFTCSVLHEGLHNHHTEKSLSHSPGSSSSPDKQMAVLPRRERNRQAAAANPENSRGKGRRGQRGKNRGCVLTAIHLNVTDLGLGYETKEELIFRYCSGSCDAAETTYDKILKNLSRNRRLVSDKVGQACCRPIAFDDDLSFLDDNLVYHILRKHSAKRCGCI
light: DIQMTQSPASLSASLEEIVTITCQASQDIGNWLAWYQQKPGKSPQLLIYGATSLADGVPSRFSGSRSGTQFSLKISRVQVEDIGIYYCLQAYNTPWTFGGGTKLELKRADAAPTVSIFPPSSEQLTSGGASVVCFLNNFYPKDINVKWKIDGSERQNGVLNSWTDQDSKDSTYSMSSTLTLTKDEYERHNSYTCEATHKTSTSPIVKSFNRGEC
notes: Hetero-tetramer of 2 light chains and 2 fusion heavy chains; expressed in COS cells, purified on protein G; also called cTrFMAb-GDNF
- Ki [5]: 3 nM
- EC50 [4]: 2.55 nM
